Assay results as given in patent US20170037088A1 (published 2017).

Tests used:
hGHR-Fc (human) = hGHR-Fc (human) (UniProt P10912); assay: ELISA
[1] = target: AC296 (FIX-XTEN_AE864 that lacks an XTEN release site) (UniProt P00740)
[2] = target: AC299 (FIX-XTEN_AE864 with an XTEN release site specific for FXI) (UniProt P00740)
[3] = target: AC300 (FIX-XTEN_AE864 with an XTEN release site specific for thrombin) (UniProt P00740)
glucagon receptor = glucagon receptor (UniProt P47871 26-477, limits assumed); assay: cell-based or functional assay

hGHR-Fc (human), sequence (P10912 19-264): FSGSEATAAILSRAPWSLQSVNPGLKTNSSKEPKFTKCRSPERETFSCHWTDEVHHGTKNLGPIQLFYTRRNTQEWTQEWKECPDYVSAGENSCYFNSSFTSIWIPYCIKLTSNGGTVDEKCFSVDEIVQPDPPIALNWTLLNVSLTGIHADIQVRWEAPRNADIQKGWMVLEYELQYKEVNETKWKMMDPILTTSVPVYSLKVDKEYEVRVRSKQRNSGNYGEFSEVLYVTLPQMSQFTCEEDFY

Work on AE912-hGH-AE144 yielded an EC50 (hGHR-Fc (human)) of 16.2 nM.

Work on “immobilized thrombin (Thrombin CleanCleave Kit, RECOM-T, Sigma)” yielded a Clotting activity (ng/ng), with thrombin [1] of 0.01 ng/ng, a Clotting activity (ng/ng), with thrombin [2] of 0.02 ng/ng and a Clotting activity (ng/ng), with thrombin [3] of 0.8 ng/ng.

B1: glucagon-Y288 (other)
chain: HSQGTFTSDYSKYLDSRRAQDFVQWLMNTGEGSGEGSEGEGSEGSGEGEGSEGSGEGEGGSEGSEGEGGSEGSEGEGGSEGSEGEGSGEGSEGEGGSEGSEGEGSGEGSEGEGSEGGSEGEGGSEGSEGEGSGEGSEGEGGEGGSEGEGSEGSGEGEGSGEGSEGEGSEGSGEGEGSGEGSEGEGSEGSGEGEGSEGSGEGEGGSEGSEGEGSEGSGEGEGGEGSGEGEGSGEGSEGEGGGEGSEGEGSGEGGEGEGSEGGSEGEGGSEGGEGEGSEGSGEGEGSEGGSEGEGSEGGSEGEGSEGSGEGEGSEGSGE
B1 was tested, and the “EC50, real-time calcium mobilization (FLIPR)” value (glucagon receptor) was 72 nM.
